These are literature values, as cited in PMC8069034.

Broadly, the Kd is a measure of binding affinity in units of concentration.

The target of this series is IL13 (Homo sapiens) (UniProt P35225). The series is described as follows: SPR. For orientation: SPR reads the build-up and loss of mass on a sensor chip optically.
Sequence of IL13 (Homo sapiens) (P35225 25-146): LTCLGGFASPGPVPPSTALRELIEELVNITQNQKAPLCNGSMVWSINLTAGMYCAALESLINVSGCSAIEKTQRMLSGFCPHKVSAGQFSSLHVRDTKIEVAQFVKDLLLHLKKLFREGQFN

Turning to tralokinumab, the equilibrium dissociation constant (Kd) is 0.058 nM.
